According to paper doi:10.1101/2025.02.06.636808, “DNA Binding by the Escherichia coli MinC–MinD Complex Requires the MinC Interdomain Linker” (bioRxiv, 2025):

Legend:
MinD (E. coli) [1] = target: T1, MinD (E. coli) (E. coli, UniProt P0AEZ3 1-270); experiment: co-sedimentation; liposome co-sedimentation without DNA, competition: MinD 1 uM, MinC 1 uM, increasing MinE, 160 ug/mL liposomes, 1 mM ATP, ATPase buffer; SDS-PAGE, Coomassie; details: both partners purified
T1 construct: source: E. coli Rosetta(DE3)pLysS, purified (nickel IMAC, desalting); His tag removed with thrombin; not shown: T7 tag, N-terminal, kept
T1 sequence (looked up): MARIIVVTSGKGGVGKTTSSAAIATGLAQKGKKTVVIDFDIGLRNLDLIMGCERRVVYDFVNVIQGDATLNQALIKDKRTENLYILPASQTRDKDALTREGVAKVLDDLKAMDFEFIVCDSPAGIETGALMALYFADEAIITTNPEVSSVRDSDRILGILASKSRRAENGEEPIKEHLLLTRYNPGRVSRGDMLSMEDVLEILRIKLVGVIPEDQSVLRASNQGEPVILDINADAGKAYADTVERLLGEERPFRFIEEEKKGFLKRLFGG

MinD (E. coli) [2] = target: T1, MinD (E. coli); experiment: co-sedimentation; liposome co-sedimentation without DNA: MinD 2 uM, MinC 2 uM, 0.5 mg/mL liposomes, 1 mM ATP, ATPase buffer (25 mM Tris-HCl pH 7.5, 50 mM KCl, 5 mM MgCl2, 5% glycerol); SDS-PAGE, Coomassie; details: both partners purified

B1: MinC-3xAGGSG linker mutant (natural protein, E. coli)
chain: MSNTPIELKGSSFTLSVVHLHEAEPKVIHQALEDKIAQAPAFLKHAPVVLNVSALEDPVNWSAMHKAVSATGLRVIGVSGCKDAQLKAEIEKMGLPILTEGAGGSGAGGSGAGGSGPVTKTRLIDTPVRSGQRIYAPQCDLIVTSHVSAGAELIADGNIHVYGMMRGRALAGASGDRETQIFCTNLMAELVSIAGEYWLSDQIPAEFYGKAARLQLVENALTVQPLN
notes: MinC, E. coli MG1655, N-terminal part before the linker, residues 1-101; linker that replaces residues 102-120 of MinC: AGGSG repeated three times; MinC, E. coli MG1655, C-terminal part after the linker, residues 121-231; source: E. coli Rosetta(DE3)pLysS, purified (nickel IMAC, desalting); His tag removed with thrombin; not shown: T7 tag, N-terminal, kept
B1: binds (MinD (E. coli) [1]).

B2: MinC-1xAGGSG linker mutant (natural protein, E. coli)
chain: MSNTPIELKGSSFTLSVVHLHEAEPKVIHQALEDKIAQAPAFLKHAPVVLNVSALEDPVNWSAMHKAVSATGLRVIGVSGCKDAQLKAEIEKMGLPILTEGAGGSGPVTKTRLIDTPVRSGQRIYAPQCDLIVTSHVSAGAELIADGNIHVYGMMRGRALAGASGDRETQIFCTNLMAELVSIAGEYWLSDQIPAEFYGKAARLQLVENALTVQPLN
notes: MinC, E. coli MG1655, N-terminal part before the linker, residues 1-101; linker that replaces residues 102-120 of MinC; MinC, E. coli MG1655, C-terminal part after the linker, residues 121-231; source: E. coli Rosetta(DE3)pLysS, purified (nickel IMAC, desalting); His tag removed with thrombin; not shown: T7 tag, N-terminal, kept
B2: binds (MinD (E. coli) [1]).

B3: MinC-2xAGGSG linker mutant (natural protein, E. coli)
chain: MSNTPIELKGSSFTLSVVHLHEAEPKVIHQALEDKIAQAPAFLKHAPVVLNVSALEDPVNWSAMHKAVSATGLRVIGVSGCKDAQLKAEIEKMGLPILTEGAGGSGAGGSGPVTKTRLIDTPVRSGQRIYAPQCDLIVTSHVSAGAELIADGNIHVYGMMRGRALAGASGDRETQIFCTNLMAELVSIAGEYWLSDQIPAEFYGKAARLQLVENALTVQPLN
notes: MinC, E. coli MG1655, N-terminal part before the linker, residues 1-101; linker that replaces residues 102-120 of MinC: AGGSG repeated twice; MinC, E. coli MG1655, C-terminal part after the linker, residues 121-231; source: E. coli Rosetta(DE3)pLysS, purified (nickel IMAC, desalting); His tag removed with thrombin; not shown: T7 tag, N-terminal, kept
B3: binds (MinD (E. coli) [1]).

B4: MinE (E. coli) (natural protein, UniProt P0A734 1-88, looked up)
chain: MALLDFFLSRKKNTANIAKERLQIIVAERRRSDAEPHYLPQLRKDILEVICKYVQIDPEMVTVQLEQKDGDISILELNVTLPEAEELK
notes: a T7 tag from pET28a may be left; source: E. coli Rosetta(DE3)pLysS, purified (nickel IMAC, desalting)
B4: binds (MinD (E. coli) [1]).

B5: MinC-4xAGGSG linker mutant (natural protein, E. coli)
chain: MSNTPIELKGSSFTLSVVHLHEAEPKVIHQALEDKIAQAPAFLKHAPVVLNVSALEDPVNWSAMHKAVSATGLRVIGVSGCKDAQLKAEIEKMGLPILTEGAGGSGAGGSGAGGSGAGGSGPVTKTRLIDTPVRSGQRIYAPQCDLIVTSHVSAGAELIADGNIHVYGMMRGRALAGASGDRETQIFCTNLMAELVSIAGEYWLSDQIPAEFYGKAARLQLVENALTVQPLN
notes: MinC, E. coli MG1655, N-terminal part before the linker, residues 1-101; linker that replaces residues 102-120 of MinC: AGGSG repeated four times; MinC, E. coli MG1655, C-terminal part after the linker, residues 121-231; source: E. coli Rosetta(DE3)pLysS, purified (nickel IMAC, desalting); His tag removed with thrombin; not shown: T7 tag, N-terminal, kept
B5: binds (MinD (E. coli) [1]).

B6: MinC19RL linker mutant (natural protein, E. coli)
chain: MSNTPIELKGSSFTLSVVHLHEAEPKVIHQALEDKIAQAPAFLKHAPVVLNVSALEDPVNWSAMHKAVSATGLRVIGVSGCKDAQLKAEIEKMGLPILTEGAGGSGAGGSGAGGSGAGGSPVTKTRLIDTPVRSGQRIYAPQCDLIVTSHVSAGAELIADGNIHVYGMMRGRALAGASGDRETQIFCTNLMAELVSIAGEYWLSDQIPAEFYGKAARLQLVENALTVQPLN
notes: MinC, E. coli MG1655, N-terminal part before the linker, residues 1-101; linker that replaces residues 102-120 of MinC: as the 4x linker but without the last glycine, 19 residues; MinC, E. coli MG1655, C-terminal part after the linker, residues 121-231; source: E. coli Rosetta(DE3)pLysS, purified (nickel IMAC, desalting); His tag removed with thrombin; not shown: T7 tag, N-terminal, kept
B6: binds (MinD (E. coli) [2]).

B7: MinC-GS linker mutant (natural protein, E. coli)
chain: MSNTPIELKGSSFTLSVVHLHEAEPKVIHQALEDKIAQAPAFLKHAPVVLNVSALEDPVNWSAMHKAVSATGLRVIGVSGCKDAQLKAEIEKMGLPILTEGGSPVTKTRLIDTPVRSGQRIYAPQCDLIVTSHVSAGAELIADGNIHVYGMMRGRALAGASGDRETQIFCTNLMAELVSIAGEYWLSDQIPAEFYGKAARLQLVENALTVQPLN
notes: MinC, E. coli MG1655, N-terminal part before the linker, residues 1-101; linker that replaces residues 102-120 of MinC; MinC, E. coli MG1655, C-terminal part after the linker, residues 121-231; Made from pET28a-MinC by amplifying the whole plasmid except residues 102-120; source: E. coli Rosetta(DE3)pLysS, purified (nickel IMAC, desalting); His tag removed with thrombin; not shown: T7 tag, …
B7: binds (MinD (E. coli) [2]).
